The target of assay [1] is T1, human Mpl-IgG Fc fusion protein (human, UniProt P40238 26-491).
T1 construct: Expressed in CHO-DG44 with a 19-residue signal peptide from a human IgG H chain variable region (left out); also called hMpl-Fc; hMPL-Fc; not shown: Fc region of human IgG-gamma1 (a region downstream of Asp 216)
T1 sequence: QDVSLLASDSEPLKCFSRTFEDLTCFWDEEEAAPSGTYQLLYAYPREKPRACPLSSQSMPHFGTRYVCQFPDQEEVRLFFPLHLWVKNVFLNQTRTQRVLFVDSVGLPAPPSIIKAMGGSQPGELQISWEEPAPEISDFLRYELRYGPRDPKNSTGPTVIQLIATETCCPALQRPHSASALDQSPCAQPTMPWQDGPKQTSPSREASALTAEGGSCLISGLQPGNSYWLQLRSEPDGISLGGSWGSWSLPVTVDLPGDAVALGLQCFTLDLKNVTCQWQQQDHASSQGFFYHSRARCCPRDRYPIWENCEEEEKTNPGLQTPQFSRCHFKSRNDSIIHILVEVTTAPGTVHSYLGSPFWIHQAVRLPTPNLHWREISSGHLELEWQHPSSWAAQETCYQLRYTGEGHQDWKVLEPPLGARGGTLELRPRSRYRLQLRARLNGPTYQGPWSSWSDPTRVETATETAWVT
As to the kind of experiment: SPR, Biacore 2000, human Mpl-IgG Fc immobilized on CM5 by amine coupling, 1.25 to 20 µg/mL VB22B IgG injected. The protocol: Since the anti-human Mpl antibody VB22B binds to soluble recombinant Mpl, kinetic analyses of the antigen-antibody reaction between VB22B IgG and human Mpl-IgG Fc fusion protein were carried out as described in Example 1.4. The Sensor Chip CM5 (Biacore) was placed in Biacore 2000 (Biacore), and human Mpl-IgG Fc fusion protein was immobilized onto the chip by amine-coupling methods. Then, 1.25 to 20 μg/mL of VB22B IgG solution was prepared using HBS-EP Buffer (Biacore), and injected over the chip surface for 2 min to reveal the binding region. Then, HBS-EP Buffer was injected over the chip surface for 2 min to reveal the dissociation region. VB22B IgG bound to the human Mpl-IgG Fc fusion protein on the sensor chip was removed by injecting 10 mM NaOH over the sensor chip for 15 sec, and the chip was recovered. HBS-EP Buffer was used as the running buffer, and the flow rate was 20 μL/min. Using the BIAevaluation Version 3.1 (Biacore) software, the reaction rate constant at each concentration was calculated from the sensorgrams.

Assay [2] has as its target T2, human Mpl expressed on BaF3 cells (BaF3-human Mpl) (human, UniProt P40238 26-635).
T2 sequence: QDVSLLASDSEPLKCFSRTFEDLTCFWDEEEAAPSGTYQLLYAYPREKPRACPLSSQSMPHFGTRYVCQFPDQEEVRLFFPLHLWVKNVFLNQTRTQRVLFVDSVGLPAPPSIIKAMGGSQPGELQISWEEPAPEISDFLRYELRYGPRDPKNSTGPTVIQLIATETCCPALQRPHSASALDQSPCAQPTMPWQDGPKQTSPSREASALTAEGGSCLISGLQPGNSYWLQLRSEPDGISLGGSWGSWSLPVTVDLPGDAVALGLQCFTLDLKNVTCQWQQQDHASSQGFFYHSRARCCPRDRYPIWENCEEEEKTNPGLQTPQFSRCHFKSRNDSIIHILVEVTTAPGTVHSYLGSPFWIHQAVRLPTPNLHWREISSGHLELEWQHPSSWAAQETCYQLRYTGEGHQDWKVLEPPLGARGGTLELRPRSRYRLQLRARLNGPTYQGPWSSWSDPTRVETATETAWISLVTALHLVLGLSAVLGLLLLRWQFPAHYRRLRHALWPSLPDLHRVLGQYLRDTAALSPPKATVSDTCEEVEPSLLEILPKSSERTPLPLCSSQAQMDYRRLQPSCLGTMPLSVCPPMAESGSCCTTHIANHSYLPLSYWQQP
The experiment in a line: cell-based or functional assay.

B1: anti-human Mpl antibody VB22B IgG (antibody, V domains shown)
VH: QVQLQQSGPELVKPGASVKISCKASGYAFTNSWMNWVKQRPGKGLEWIGRIYPGDGETIYNGKFRVKATLTADKSSSTAYMDISSLTSEDSAVYFCARGYDDYSFAYWGQGTLVTVSA
VL: DIVMTQAAPSIPVTPGESVSISCRSSKSLLHSNGNTYLYWFLQRPGQSPQLLIYRMSNLASGVPDRFSGSGSGTAFTLRISRVEAEDVGVYYCMQHIEYPFTFGSGTKLEIK
notes: also called murine antibody VB22B
As a reminder, the Kd is the free concentration of one partner at which half of the binding sites on the other are occupied at equilibrium, for simple one-to-one binding. A high value points to lower affinity. In assay [1], B1 yielded a Kd of 1.67 nM. The “TPO-like agonistic activity, EC50 (growth of BaF3-human Mpl, WST-8)” value in assay [2] was greater than 30 nM.

These data come from US20060222643A1 (Chugai, published 2006).
